Experimental data taken from patent publication US20160032014A1 (Amgen, published 2016).
Like-named read-outs stand apart in the source and are kept apart here.

B1: SS-15132 (antibody, V domains shown)
VH: EVQLVESGGGLVKPGGSLRLSCAASGFTFSSYSMNWVRQAPGKGLEWVSSISSSSSYHSYADSVKGRFTISRDNAKNSLYLQMNSLRAEDTAVYFCARDYDFHSAHYDAFDVWGQGTMVTVSS
VL: ESVLTQPPSVSGAPGQRVTISCTGSSSNIGAGYDVHWYQQLPGTAPKLLISGNSNRPSGVPDRFSGSKSGTSASLAITGLQAEDEADYYCQSYDSSLSGSVFGGGTKLTVLG
notes: 31H4 His variant: HC 68(58), 132(106), parental(113H)
B2: SS-15141 (antibody, V domains shown)
VH: EVQLVESGGGLVKPGGSLRLSCAASGFTFSSYSMNWVRQAPGKGLEWVSSISSSSSYISYADHVKGRFTISRDNAKNSLYLQMNSLRAEDTAVYFCARDYDFHSAHYDAFDVWGQGTMVTVSS
VL: ESVLTQPPSVSGAPGQRVTISCTGSSSNIGAGYDVHWYQQLPGTAPKLLISGNSNRPSGVPDRFSGSKSGTSASLAITGLQAEDEADYYCQSYDSSLSGSVFGGGTKLTVLG
notes: 31H4 His variant: HC 73(63), 132(106), parental(113H)
B3: SS-15124 (antibody, V domains shown)
VH: EVQLVESGGGLVKPGGSLRLSCAASGFTFSSYSMNWVRQAPGKGLEWVSSISSSSHYISHADSVKGRFTISRDNAKNSLYLQMNSLRAEDTAVYFCARDYDFHSAYYDAFDVWGQGTMVTVSS
VL: ESVLTQPPSVSGAPGQRVTISCTGSSSNIGAGYDVHWYQQLPGTAPKLLISGNSNRPSGVPDRFSGSKSGTSASLAITGLQAEDEADYYCQSYDSSLSGSVFGGGTKLTVLG
notes: 31H4 His variant: HC 66(56), 70(60), parental(113H)
B4: SS-15139 (antibody, V domains shown)
VH: EVQLVESGGGLVKPGGSLRLSCAASGFTFSSYSMNWVRQAPGKGLEWVSSISSSSSYISYAHSVKGRFTISRDNAKNSLYLQMNSLRAEDTAVYFCARDYDFHSAHYDAFDVWGQGTMVTVSS
VL: ESVLTQPPSVSGAPGQRVTISCTGSSSNIGAGYDVHWYQQLPGTAPKLLISGNSNRPSGVPDRFSGSKSGTSASLAITGLQAEDEADYYCQSYDSSLSGSVFGGGTKLTVLG
notes: 31H4 His variant: HC 72(62), 132(106), parental(113H)
B5: SS-15087 (antibody, V domains shown)
VH: EVQLVESGGGLVKPGGSLRLSCAASGFTFSSYSMNWVRQAPGKGLEWVSSISSSSSYISYADSVKGRFTISRDNAKNSLYLQMNSLRAEDTAVYFCARDYDFHSAHYDAFDVWGQGTMVTVSS
VL: ESVLTQPPSVSGAPGQRVTISCTGSSSNIGAGYDVHWYQQLPGTAPKLLISGNSNRPSGVPDRFSGSKSGTSASLAITGLQAEDEADYYCQSYDSSLHGSVFGGGTKLTVLG
B6: SS-15114 (antibody, V domains shown)
VH: EVQLVESGGGLVKPGGSLRLSCAASGFTFSSHSMNWVRQAPGKGLEWVSSISSSSSYISYADSVKGRFTISRDNAKNSLYLQMNSLRAEDTAVYFCARDYDFHSAHYDAFDVWGQGTMVTVSS
VL: ESVLTQPPSVSGAPGQRVTISCTGSSSNIGAGYDVHWYQQLPGTAPKLLISGNSNRPSGVPDRFSGSKSGTSASLAITGLQAEDEADYYCQSYDSSLSGSVFGGGTKLTVLG
notes: 31H4 His variant: HC 39(32), 132(106), parental(113H)
B7: SS-15121 (antibody, V domains shown)
VH: EVQLVESGGGLVKPGGSLRLSCAASGFTFSSYSMNWVRQAPGKGLEWVSSISSHSSYISYADSVKGRFTISRDNAKNSLYLQMNSLRAEDTAVYFCARDYDFHSAHYDAFDVWGQGTMVTVSS
VL: ESVLTQPPSVSGAPGQRVTISCTGSSSNIGAGYDVHWYQQLPGTAPKLLISGNSNRPSGVPDRFSGSKSGTSASLAITGLQAEDEADYYCQSYDSSLSGSVFGGGTKLTVLG
notes: 31H4 His variant: HC 61(54), 132(106), parental(113H); parental LC
B8: SS-15065 (antibody, V domains shown)
VH: EVQLVESGGGLVKPGGSLRLSCAASGFTFSSYSMNWVRQAPGKGLEWVSSISSSSSYISYADSVKGRFTISRDNAKNSLYLQMNSLRAEDTAVYFCARDYDFHSAHYDAFDVWGQGTMVTVSS
VL: ESVLTQPPSVSGAPGQRVTISCTGSSSNIGAGHDVHWYQQLPGTAPKLLISGNSNRPSGVPDRFSGSKSGTSASLAITGLQAEDEADYYCQSYDSSLSGSVFGGGTKLTVLG
notes: 31H4 His variant: LC 39(32), HC 132(106), parental(113H)
B9: SS-15126 (antibody, V domains shown)
VH: EVQLVESGGGLVKPGGSLRLSCAASGFTFSSYSMNWVRQAPGKGLEWVSSISSSSHYISYADHVKGRFTISRDNAKNSLYLQMNSLRAEDTAVYFCARDYDFHSAYYDAFDVWGQGTMVTVSS
VL: ESVLTQPPSVSGAPGQRVTISCTGSSSNIGAGYDVHWYQQLPGTAPKLLISGNSNRPSGVPDRFSGSKSGTSASLAITGLQAEDEADYYCQSYDSSLSGSVFGGGTKLTVLG
notes: 31H4 His variant: HC 66(56), 73(63), parental(113H)
B10: SS-15136 (antibody, V domains shown)
VH: EVQLVESGGGLVKPGGSLRLSCAASGFTFSSYSMNWVRQAPGKGLEWVSSISSSSSYISHADSVKGRFTISRDNAKNSLYLQMNSLRAEDTAVYFCARDYDFHSAHYDAFDVWGQGTMVTVSS
VL: ESVLTQPPSVSGAPGQRVTISCTGSSSNIGAGYDVHWYQQLPGTAPKLLISGNSNRPSGVPDRFSGSKSGTSASLAITGLQAEDEADYYCQSYDSSLSGSVFGGGTKLTVLG
notes: 31H4 His variant: HC 70(60), 132(106), parental(113H)
B11: SS-14835 (antibody, V domains shown)
VH: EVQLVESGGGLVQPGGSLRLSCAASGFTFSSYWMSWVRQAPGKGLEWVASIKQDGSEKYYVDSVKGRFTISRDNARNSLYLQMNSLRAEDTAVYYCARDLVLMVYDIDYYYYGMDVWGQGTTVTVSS
VL: DIVMTQSPLSLPVTPGEPASISCRSSQSLLHSGNGYNYLDWYLQKPGQSPQLLIYLGLNRASGVPDRFSGSGSGTDFTLKISRVEAEDVGVYYCMQAIHTPLTFGGGTKVEIKR
notes: HC WT, LC G33 insertion, S57L/L97I, Q98H
B12: SS-15196 (antibody, V domains shown)
VH: not shown
VL: DIVMTQSPLSLPVTPGEPASISCRSSQSLLHSGNGYNYLDWYLQKPGQSPQLLIYLGLNRASGVPDRFSGSGSGTDFTLKISRVEAEDVGVYYCMQAIHTPLTFGGGTKVEIKR
notes: HC I107M, LC G33 insertion, S57L, L97I, Q98H

What was measured:
[1] = biological target: T1, human PCSK9 (self-cleaved, mature, secreted PCSK9 comprising amino acids 31 to 692 of SEQ ID NO: 2) (human, UniProt Q8NBP7 31-692, biotinylated in the ELISAs); assay: SPR pH 5.5
T1 construct: Limits 31-692 are stated for the immunogen; the assays only say human PCSK9; also called huPCSK9; rhu PCSK9

[2] = biological target: T1, human PCSK9 (self-cleaved, mature, …); assay: SPR pH 7.4
[3] = biological target: T1, human PCSK9 (self-cleaved, mature, …); assay: SPR pH 7.4; remark: listed apart in the source
[4] = biological target: T1, human PCSK9 (self-cleaved, mature, …); assay: SPR pH 7.4; remark: listed apart in the source
[5] = biological target: T1, human PCSK9 (self-cleaved, mature, …); assay: solution equilibrium, BIAcore, pH 5.5
[6] = biological target: T1, human PCSK9 (self-cleaved, mature, …); assay: solution equilibrium, BIAcore
[7] = biological target: T1, human PCSK9 (self-cleaved, mature, …); assay: solution equilibrium, BIAcore, pH 7.4

| Binder | estimated complex half life pH 5.5 [1] | Kd [2] | koff [2] | kon [2] | Kd [3] | koff [3] | kon [3] | Kd [4] | koff [4] | kon [4] | Kd [5] | KD ratio pH 5.5/pH 7.4 [6] | Kd [7] |
| --- | --- | --- | --- | --- | --- | --- | --- | --- | --- | --- | --- | --- | --- |
| B1 | 20 s | 0.273 nM | 0.000338 s⁻¹ | 1.24e+06 M⁻¹ s⁻¹ |  |  |  |  |  |  |  |  |  |
| B2 | 100 s | 0.185 nM | 0.000255 s⁻¹ | 1.38e+06 M⁻¹ s⁻¹ |  |  |  |  |  |  |  |  |  |
| B3 | 100 s | 0.327 nM | 0.000525 s⁻¹ | 1.6e+06 M⁻¹ s⁻¹ |  |  |  |  |  |  |  |  |  |
| B4 | 100 s | 0.19 nM | 0.000248 s⁻¹ | 1.31e+06 M⁻¹ s⁻¹ |  |  |  |  |  |  |  |  |  |
| B5 | 100 s | 0.229 nM | 0.000288 s⁻¹ | 1.26e+06 M⁻¹ s⁻¹ |  |  |  |  |  |  |  |  |  |
| B6 | 100 s | 0.271 nM | 0.00015 s⁻¹ | 555000 M⁻¹ s⁻¹ |  |  |  |  |  |  |  |  |  |
| B7 | 20 s | 0.383 nM | 0.000563 s⁻¹ | 1.47e+06 M⁻¹ s⁻¹ |  |  |  |  |  |  |  |  |  |
| B8 | 100 s | 0.274 nM | 0.000337 s⁻¹ | 1.23e+06 M⁻¹ s⁻¹ |  |  |  |  |  |  |  |  |  |
| B9 | 100 s | 0.257 nM | 0.000385 s⁻¹ | 1.5e+06 M⁻¹ s⁻¹ |  |  |  |  |  |  |  |  |  |
| B10 | 100 s | 0.241 nM | 0.000298 s⁻¹ | 1.23e+06 M⁻¹ s⁻¹ |  |  |  |  |  |  |  |  |  |
| B11 |  |  |  |  | 0.534 nM | 0.000163 s⁻¹ | 306000 M⁻¹ s⁻¹ | 0.534 nM | 0.000163 s⁻¹ | 306000 M⁻¹ s⁻¹ | 3.1 nM | 8.9 | 0.35 nM |
| B12 |  |  |  |  | 0.134 nM | 5.06e-05 s⁻¹ | 377000 M⁻¹ s⁻¹ | 0.134 nM | 5.06e-05 s⁻¹ | 377000 M⁻¹ s⁻¹ | 0.57 nM | 10.2 | 0.056 nM |
